Test results reported in patent publication US20240018206A1.

Molecular target: IL-1 receptor (IL-1R1) on A375.s2 cells (UniProt P14778)
Assay: cell-based or functional assay

Chain of UniProt P14778 (P14778 18-569 limits assumed): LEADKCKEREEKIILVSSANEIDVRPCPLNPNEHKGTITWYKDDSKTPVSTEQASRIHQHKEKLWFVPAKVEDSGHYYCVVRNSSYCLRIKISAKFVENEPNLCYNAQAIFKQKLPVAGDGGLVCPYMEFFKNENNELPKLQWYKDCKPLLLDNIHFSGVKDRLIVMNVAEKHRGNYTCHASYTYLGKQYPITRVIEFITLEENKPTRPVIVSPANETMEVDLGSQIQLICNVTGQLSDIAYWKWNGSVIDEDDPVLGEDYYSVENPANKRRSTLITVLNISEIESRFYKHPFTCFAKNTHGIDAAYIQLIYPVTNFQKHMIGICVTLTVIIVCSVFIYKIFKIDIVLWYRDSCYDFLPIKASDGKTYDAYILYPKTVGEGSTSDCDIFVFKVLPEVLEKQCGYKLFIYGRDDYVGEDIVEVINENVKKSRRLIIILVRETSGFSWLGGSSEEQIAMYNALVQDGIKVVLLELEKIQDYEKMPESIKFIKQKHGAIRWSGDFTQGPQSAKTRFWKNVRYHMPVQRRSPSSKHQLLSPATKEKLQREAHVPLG

Row | IC50(µg/ml), inhibition of IL-1β induced A375.s2 apoptosis (MTS, 490 nM) [µg/mL] | biological activity relative to the wild type [fold] | IL1RN activity IC50 [µg/mL] | Substance
1 | 4.85 | 3 |  | IL-1RN D74N-Fc without linker (from UniProt P18510 26-177) (Fc fusion)
2 |  |  | 0.333 | IL-1RN-Fc, single-target comparator of Table 4 (from UniProt P18510 26-177) (Fc fusion)
3 |  |  | 0.714 | IL-1RN-TNFR2-Fc dual-target fusion protein (IL-1RN D74N, TNFR2, hIgG4 Fc S228P) (Fc fusion)
4 | 12.1 |  |  | Wild-type IL-1RN-Fc of Table 2 (from UniProt P18510 26-177) (Fc fusion)
